This note sets out measurements from publication doi:10.1101/738153.

Test [1] has as its target TbBILBO1 N-terminal domain (TbBILBO1-NTD), wild type, residues 1-120 (Trypanosoma brucei). Briefly: ITC. (In ITC the heat of successive injections is recorded.)
For test [2], the target named is TbBILBO1-NTD Y64A (Trypanosoma brucei). Briefly: ITC.

“TbFPC4 C-terminal domain (TbFPC4-CTD), residues 357-404 (domain or fragment)”: the Kd in test [1] stood at 5 µM. In test [2], this substance returned a fold reduction of binding affinity against wild type of 2.5 fold.

Broadly, the Kd is the constant that tells how readily two partners part at equilibrium.
